Test results reported in PMC8894971, “ENB1 encodes a cellulose synthase 5 that directs synthesis of cell wall ingrowths in maize basal endosperm transfer cells”.

T1: MRP1 (His-TF-MRP1) (Zea mays, UniProt K7V5I7 1-241)
T1 sequence: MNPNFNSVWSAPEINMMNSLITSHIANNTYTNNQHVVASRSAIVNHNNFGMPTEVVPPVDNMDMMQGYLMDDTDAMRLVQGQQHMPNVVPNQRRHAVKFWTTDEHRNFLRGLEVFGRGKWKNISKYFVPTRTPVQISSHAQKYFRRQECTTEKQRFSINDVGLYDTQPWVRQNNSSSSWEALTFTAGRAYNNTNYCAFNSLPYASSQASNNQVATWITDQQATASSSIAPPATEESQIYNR


Tests used:
MRP1 (His-TF-MRP1) [1] = molecular target: T1, MRP1 (His-TF-MRP1); assay: EMSA; LightShift EMSA kit standard protocol, ~200 ng protein, 5 ng biotin probe, 6% native polyacrylamide gel; buffer, salt, pH and temperature not stated; details: protein: recombinant; tags: N-terminal His-TF (trigger factor, pCold-TF); blunt (duplex implied)
MRP1 (His-TF-MRP1) [2] = molecular target: T1, MRP1 (His-TF-MRP1); assay: EMSA; labeled Mu probe; no shifted band; LightShift EMSA kit standard protocol, ~200 ng protein, 5 ng biotin probe, 6% native polyacrylamide gel; buffer, salt, pH and temperature not stated; details: protein: recombinant; tags: N-terminal His-TF (trigger factor, pCold-TF); blunt (duplex implied)

Binder | binding result (MRP1 (His-TF-MRP1) [1]) | binding result (MRP1 (His-TF-MRP1) [2])
ENB1 promoter WT probe (dsDNA) DNA 1: CTACTTATTATCTACATATCTATGTGACTA DNA 2: TAGTCACATAGATATGTAGATAATAAGTAG | binds | –
ENB1 promoter Mu probe (dsDNA) DNA 1: CTACTTATGAGCGACAGAGCGATGTGACTA DNA 2: TAGTCACATCGCTCTGTCGCTCATAAGTAG | – | no binding
